This series concerns the molecule itself. Briefly: SEC. Background: In gel filtration, larger molecules generally elute earlier.

B1: S. cerevisiae Dmc1 (ScDmc1), N-terminally (His)6-tagged (natural protein, UniProt P25453 1-334, looked up)
chain: MSVTGTEIDSDTAKNILSVDELQNYGINASDLQKLKSGGIYTVNTVLSTTRRHLCKIKGLSEVKVEKIKEAAGKIIQVGFIPATVQLDIRQRVYSLSTGSKQLDSILGGGIMTMSITEVFGEFRCGKTQMSHTLCVTTQLPREMGGGEGKVAYIDTEGTFRPERIKQIAEGYELDPESCLANVSYARALNSEHQMELVEQLGEELSSGDYRLIVVDSIMANFRVDYCGRGELSERQQKLNQHLFKLNRLAEEFNVAVFLTNQVQSDPGASALFASADGRKPIGGHVLAHASATRILLRKGRGDERVAKLQDSPDMPEKECVYVIGEKGITDSSD
Regarding B1, the binding result is reported as “binds”.

Values taken from PMC3732525 (DNA repair, 2013).
